Measurements published in patent publication US20150299265A1 (Molecular Partners, published 2015).
Each block holds one binder with its values, some of them ahead of it.

Molecular target: Human HER2 expressed on tumour cells (human, UniProt P04626 23-1255)
Experiment: cell-based or functional assay

B2: DARPin #28 (designed binder)
chain: MRGSHHHHHHGSDLGVKLLWAAARGQDDEVRILLAAGADVNAKDFQGITPLHIAATNGHLEIVEVLLKAGADVNAKDITGETPLHHAADSGHLEIVEVLLKAGADVNAQDKAGVTPADLAAAWGHEDIAEVLQKLGGGGSGGGGSRSDLGAKLLVAATSGQDDEVRILLAAGADVNAKDRIGFTPLHRAAFVGHLEIVEVLLKAGADVNAQDDFGHTPADLAASLGHEDIAEVLQKLN
% activity vs. DARPin # 41, BT474 cell proliferation: 82.5%
IC50 [nM], inhibition of BT474 cell proliferation (BrdU): 5.15 nM

B3: DARPin #33 (designed binder)
chain: MRGSHHHHHHGSDLGIKLLFAASRGQDDEVRILLAAGADVNAKDFEGITPLHAAARSGHLEIVEVLLKAGADVNAKDVEGWTPLHYAASYGHLEIVEVLLKAGADVNAQDNHGATPADLAAQWGHEDIAEVLQKLGGGGSGGGGSRSDLGAKLLVAATSGQDDEVRILLAAGADVNAKDRIGFTPLHRAAFVGHLEIVEVLLKAGADVNAQDDFGHTPADLAASLGHEDIAEVLQKLN
% activity vs. DARPin # 41, BT474 cell proliferation: 65.3%
IC50 [nM], inhibition of BT474 cell proliferation (BrdU): 4.47 nM

B5: DARPin #29 (designed binder)
chain: MRGSHHHHHHGSDLGVKLLWAAARGQDDEVRILLAAGADVNAKDFQGITPLHIAATNGHLEIVEVLLKAGADVNAKDITGETPLHHAADSGHLEIVEVLLKAGADVNAQDKAGVTPADLAAAWGHEDIAEVLQKLGGGGSGGGGSRSDLGKKLLEAARAGQDDEVRILMANGADVNAKDEYGLTPLYLATAHGHLEIVEVLLKNGADVNAVDAIGFTPLHLAAFIGHLEIAEVLLKHGADVNAQDKFGKTAFDISIGNGNEDLAEILQKLN
% activity vs. DARPin # 41, BT474 cell proliferation: 95%
IC50 [nM], inhibition of BT474 cell proliferation (BrdU): 1.33 nM

B7: DARPin #24 (designed binder)
chain: MRGSHHHHHHGSDLGDKLLQSDLGIKLLFAAAKSQDDEVRILLAAGADVNAKDFQSVTPLHIAAQSGHLEIVEVLLKAGADVNAKDVTGDTPLHLAAQHGHLEIVEVLLKAGADVNAQDERGWTPADLAADWGHEDIAEVLQKLGGGGSGGGGSRSDLGKKLLEAARAGQDDEVRILMANGADVNAKDEYGLTPLYLATAHGHLEIVEVLLKNGADVNAVDAIGFTPLHLAAFIGHLEIAEVLLKHGADVNAQDKFGKTAFDISIGNGNEDLAEILQKLN
% activity vs. DARPin # 41, BT474 cell proliferation: 99.9%
IC50 [nM], inhibition of BT474 cell proliferation (BrdU): 1.97 nM

B9: DARPin #34 (designed binder)
chain: MRGSHHHHHHGSDLGIKLLFAASRGQDDEVRILLAAGADVNAKDFEGITPLHAAARSGHLEIVEVLLKAGADVNAKDVEGWTPLHYAASYGHLEIVEVLLKAGADVNAQDNHGATPADLAAQWGHEDIAEVLQKLGGGGSGGGGSRSDLGKKLLEAARAGQDDEVRILMANGADVNAKDEYGLTPLYLATAHGHLEIVEVLLKNGADVNAVDAIGFTPLHLAAFIGHLEIAEVLLKHGADVNAQDKFGKTAFDISIGNGNEDLAEILQKLN
% activity vs. DARPin # 41, BT474 cell proliferation: 95.1%
IC50 [nM], inhibition of BT474 cell proliferation (BrdU): 3.88 nM

B11: DARPin #32 (designed binder)
chain: MRGSHHHHHHGSDLGIKLLFAASRGQDDEVRILLAAGADVNAKDFEGITPLHAAARSGHLEIVEVLLKAGADVNAKDVEGWTPLHYAASYGHLEIVEVLLKAGADVNAQDNHGATPADLAAQWGHEDIAEVLQKLGGGGSGGGGSRSDLGIKLLQAANLGQDDEVRILLATGADVNAKDSIGQTPLHWAARRGHLEIVEVLLKAGADVNAKDEYGVTPLHLAASLGHLEIVEVLLKAGADVNAQDESGETPADLAALHGHEDIAEVLQKLN
% activity vs. DARPin # 41, BT474 cell proliferation: 48%
IC50 [nM], inhibition of BT474 cell proliferation (BrdU): 3.29 nM

B12: DARPin #37 (designed binder)
chain: MRGSHHHHHHGSDLGIKLLFAAAKGQDDEVRILLAAGADVNAKDFEGYTPLHVAAYDGHLEIVEVLLKAGADVNAKDSQGRTPLHEAAYSGHLEIVEVLLKAGADVNAQDDAGETPADLAAAWGHEDIAEVLQKLGGGGSGGGGSRSDLGKKLLEAARAGQDDEVRILMANGADVNAKDEYGLTPLYLATAHGHLEIVEVLLKNGADVNAVDAIGFTPLHLAAFIGHLEIAEVLLKHGADVNAQDKFGKTAFDISIGNGNEDLAEILQKLN
% activity vs. DARPin # 41, BT474 cell proliferation: 94.8%
IC50 [nM], inhibition of BT474 cell proliferation (BrdU): 2.19 nM

Now from value to binder:

% activity vs. DARPin # 41, BT474 cell proliferation: 91.2%
IC50 [nM], inhibition of BT474 cell proliferation (BrdU): 2.76 nM
B1: DARPin #40 (designed binder)
chain: MRGSHHHHHHGSDLGHKLLEAAVAGQDDEVRILLAAGADVNAKDWYGKTPLHFAAGLGHLEIVEVLLKAGADVNAKDEDGQTPLHLAAAYGHLEIVEVLLKAGADVNAQDNDGFTPADLAADSGHEDIAEVLQKLGGGGSGGGGSRSDLGKKLLEAARAGQDDEVRILMANGADVNAKDEYGLTPLYLATAHGHLEIVEVLLKNGADVNAVDAIGFTPLHLAAFIGHLEIAEVLLKHGADVNAQDKFGKTAFDISIGNGNEDLAEILQKLN

% activity vs. DARPin # 41, BT474 cell proliferation: 100%
IC50 [nM], inhibition of BT474 cell proliferation (BrdU): 3.77 nM
B4: DARPin #42 (designed binder)
chain: MRGSHHHHHHGSDLGAKLLSDLGVKLLWAAARGQDDEVRILLAAGADVNAKDFQGITPLHIAAQSGHLEIVEVLLKAGADVNAKDVTGDTPLHLAAQHGHLVIVEVLLKAGADVNAQDERGWTPADLAADWGHEDIAEVLQKLGGGGSGGGGSRSDLGKKLLEAARAGQDDEVRILMANGADVNATDIHGHTPLHLAAAMGHLEIVEVLLKNGADVNANDWRGFTPLHLAALNGHLEIVEVLLKNGADVNATDTAGNTPLHLAAWFGHLEIVEVLLKNGADVNAQDKFGKTAFDISIDNGNEDLAEILQKLN

% activity vs. DARPin # 41, BT474 cell proliferation: 99.3%
IC50 [nM], inhibition of BT474 cell proliferation (BrdU): 3.3 nM
B6: DARPin #38 (designed binder)
chain: MRGSHHHHHHGSDLGHKLLEAAVAGQDDEVRILLAAGADVNAKDWYGKTPLHFAAGLGHLEIVEVLLKAGADVNAKDEDGQTPLHLAAAYGHLEIVEVLLKAGADVNAQDNDGFTPADLAADSGHEDIAEVLQKLGGGGSGGGGSRSDLGIKLLQAANLGQDDEVRILLATGADVNAKDSIGQTPLHWAARRGHLEIVEVLLKAGADVNAKDEYGVTPLHLAASLGHLEIVEVLLKAGADVNAQDESGETPADLAALHGHEDIAEVLQKLN

% activity vs. DARPin # 41, BT474 cell proliferation: 97.3%
IC50 [nM], inhibition of BT474 cell proliferation (BrdU): 2.99 nM
B8: DARPin #23 (designed binder)
chain: MRGSHHHHHHGSDLGDKLLQSDLGIKLLFAAAKSQDDEVRILLAAGADVNAKDFQSVTPLHIAAQSGHLEIVEVLLKAGADVNAKDVTGDTPLHLAAQHGHLEIVEVLLKAGADVNAQDERGWTPADLAADWGHEDIAEVLQKLGGGGSGGGGSRSDLGAKLLVAATSGQDDEVRILLAAGADVNAKDRIGFTPLHRAAFVGHLEIVEVLLKAGADVNAQDDFGHTPADLAASLGHEDIAEVLQKLN

% activity vs. DARPin # 41, BT474 cell proliferation: 68.8%
IC50 [nM], inhibition of BT474 cell proliferation (BrdU): 2.56 nM
B10: DARPin #36 (designed binder)
chain: MRGSHHHHHHGSDLGIKLLFAAAKGQDDEVRILLAAGADVNAKDFEGYTPLHVAAYDGHLEIVEVLLKAGADVNAKDSQGRTPLHEAAYSGHLEIVEVLLKAGADVNAQDDAGETPADLAAAWGHEDIAEVLQKLGGGGSGGGGSRSDLGAKLLVAATSGQDDEVRILLAAGADVNAKDRIGFTPLHRAAFVGHLEIVEVLLKAGADVNAQDDFGHTPADLAASLGHEDIAEVLQKLN
